Here are results for three compounds from patent US20240293570A1 (priority 2021, published 2024).

Where two headings read alike, the source gives them in different places. *1 amine or outer side, *2 acyl side, *3 side chain or, on linkers, in order; H or OH if unused. Where a SMILES comes first, the peptide text is derived from it. [ ]: non-standard residue; d: D form. The star is where a group is joined. Exatecan = CC[C@@]1(O)C(=O)OCc2c1cc1n(c2=O)Cc2c-1nc1cc(F)c(C)c3c1c2[C@@H](N*)CC3; Propanoyl(3-maleimido) = O=C1C=CC(=O)N1CCC(=O)*; X1 = O=C(CN1CCOCCN([*:1])CCOCC1)[*:2]; NHCH2OCH2CO = O=C(COCN[*:1])[*:2]

A short description of series [1]: Naked antibody content of antibody-drug conjugates by hydrophobic interaction chromatography (HIC). The class given is physicochemical. As to conditions: ADC with Her2 antibody.
The format of series [2] is physicochemical. The conditions noted are these: ADC with Her2 antibody, RP-HPLC-MS. Put shortly: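 ADC at 1 mg/ml reduced with 50 mmol/L DTT in Tris pH 8.0 for 30 min at 37 °C, then light and heavy chains separated by RP-HPLC on a PLRP-S column at 70 °C. Deconvoluted masses assigned drug load per peak; weighted average DAR calculated from UV peak area percentages.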
Series [3] deals with breast cancer JIMT-1. As to the kind of experiment: In vivo anti-tumor effect, breast cancer JIMT-1 tumor model. On the set-up: species or system mouse. The conditions noted are these: JIMT-1 subcutaneous model, FIG. 10. How it is done: (§1) Tumor cells (ovarian cancer SKOV-3, gastric cancer NCI-N87, and breast cancer JIMT-1) were cultured in a medium and maintained in a 37° C. saturated humidity incubator containing 5% CO2, respectively.
(§2) Tumor cells in a logarithmic growth phase were collected and re-suspended in a basic medium, and the concentration of cells was adjusted to 4×10^7/mL. Under sterile conditions, 0.1 mL of cell suspension was inoculated subcutaneously into the right armpit of a mouse at a concentration of 4×10^6 Cells/0.1 mL/mouse.
(§3) When the tumor volume reached around 200 mm^3, animals were randomly grouped according to the tumor volume, where the difference in tumor volume between the groups was less than 10% of the mean. The grouping day was recorded as Day 0, and administration started according to the body weight of the animals. In the administration period, if the body weight of individual animals decreased by more than 15% compared to that on Day 0 (BWL≥15%), the administration was stopped until the body weight of the animals recovered (BWL<15%), and then the administration recovered.
(§4) During the experiment, the body weight of the animals and the tumor volume were measured 2 times a week, and clinical symptoms of the animals were observed and recorded every day.

The subject of series [4] is gastric cancer NCI-N87. Nature of the series: In vivo anti-tumor effect, gastric cancer NCI-N87 tumor model. On the set-up: species or system mouse. As to conditions: NCI-N87 subcutaneous model, FIG. 10, FIG. 11. As for the experimental part: as §1, §2, §3, §4
The nature of series [5]: Polymer (high molecular component) content of antibody-drug conjugates by SE-HPLC. The class given is physicochemical. As to conditions: ADC with Her2 antibody. Put shortly: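 SE-HPLC on 7.8×300 mm SEC column with 50 mM phosphate, 300 mM NaCl (pH 6.8) mobile phase at 0.5 mL/min; high-molecular-weight content determined by area normalization.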
A short description of series [6]: Stability (placement) test of ADCs at 40° C. in dark for 14 days, DAR and polymer content. The class given is physicochemical. As for the experimental part: Polymers (high molecular components) of the antibody-drug conjugates were tested using molecular exclusion high-performance liquid chromatography (SE-HPLC). A Biocore SEC chromatographic column (7.8×300 mm, […]) was used, and the mobile phase was 50 mM phosphate containing 300 mM sodium chloride (pH 6.8), with a flow rate of 0.5 mL/min. Samples of […] and 10 μl were injected. […] The polymer content of an antibody-drug conjugate was calculated using an area normalization method.
A drug-antibody conjugating ratio (also known as drug-antibody ratio, abbreviated as DAR) of the antibody-drug conjugate was tested using reversed-phase high-performance liquid chromatography-mass chromatography (RP-HPLC-MS). The ADC sample was diluted with 50 mmol/L Tris buffer (pH 8.0) to 1 mg/ml. A fresh dithiothreitol (DTT) stock solution was added to achieve a final DTT concentration of 50 mmol/L. Incubation was performed at 37° C. for 30 minutes. A PLRP-S chromatographic column (1000 Å pores, 2.1×50 mm, 5) μm) was used, and the column temperature was 70° C. The flow rate was 0.25 mL/min. […] of sample was injected; the mobile phase A was an aqueous solution of 0.1% formic acid (V/V) and 0.025% trifluoroacetic acid (V/V), and the mobile phase B was an acetonitrile solution of 0.1% formic acid (V/V) and 0.025% trifluoroacetic acid (V/V); the running time was 0-3 minutes, where 27% of mobile phase B ran for 3 minutes, and the mobile phase B ran from 27% to 49% within 3-25 minutes, from 49% to 95% within 25-26 minutes, at 95% within […], from 95% to 27% within 30-31.5 minutes, and at 27% for 31.5-45 minutes. […] Mass spectrometry drying gas was at a temperature of 350° C. and a flow rate of 7.0 L/min, the pressure of an atomizer was 40 psi, capillary voltage was positive 3000V and negative 3000V, and the mass range was 500-1600 m/z. The molecular weight of each mass spectrometry peak (ranging from 20000 to 70000) was calculated by deconvolution and compared with light and heavy chain molecular weights of un-conjugated antibodies to calculate a drug load at each peak, so as to determine the load of a corresponding ultraviolet peak. Area percentages of heavy and light chain ultraviolet peaks were calculated through integration, and a weighted average DAR of the antibody-drug conjugate was calculated by combining the area percentages with the drug load distribution of each peak.
Stability testing method: The stability of the obtained ADCs was tested for 14 days. The ADCs were placed at 40° C. in dark. Sampling points were days 0, 7, and 14. The polymer content and DAR value of samples at different sampling points were tested according to the method in Experimental Example 1.

A short description of series [7]: Plasma stability of ADCs, generated payload by LC-MS/MS, monkey plasma. The class given is in vitro ADME, monkeys. As to conditions: 37° C., 100 μg/mL, up to 21 d, FIG. 7-9. How it is done:
(§5) In order to further evaluate the characteristics of ADCs, the plasma stability of ADCs was tested. The plasma stability was tested by the following steps:
(§6) A test sample stock solution was diluted with ultra-pure water into a working solution having a concentration of 2.5 mg/mL. The working solution was prepared as needed and used at room temperature.
(§7) Follow the following steps to test plasma samples: • (1) 980 μL of plasma was collected from blank CD-1 mice, monkeys, and humans (experimental group N=2, control group N=1) and pre-incubated at 37° C. for 5 minutes; • (2) 20 μL of test compound working solution (or positive control drug (payload) working solution) was added, followed by vortex mixing (final concentration of the test compound was 100 μg/mL, and final concentration of the positive control drug was 1 μM). 50 μL of plasma sample was immediately added into 150 μL of ice precipitant, followed by vortex mixing as a 0 h sample; • (3) The remaining plasma samples were sealed and further incubated at 37° C., and 50 μL of each plasma sample was pipetted into 150 μL of ice precipitant according to preset time points in Table 3, followed by vortex mixing; […]
(§8) The samples were analyzed using liquid chromatography-tandem mass spectrometry (LC-MS/MS) to measure the quantity of a generated payload, where the quantities of two payloads were measured for dual toxin ADCs respectively.

The nature of series [8]: Plasma stability of ADCs, generated payload by LC-MS/MS, mouse plasma. The conditions noted are these: 37° C., 100 μg/mL, up to 21 d, FIG. 7-9. The class given is in vitro ADME, CD-1 mice. How it is done: as §5, §6, §7, §8
Series [9] can be described thus: Plasma stability of ADCs, generated payload by LC-MS/MS, human plasma. The class given is in vitro ADME, humans. As to conditions: 37° C., 100 μg/mL, up to 21 d, FIG. 7-9. How it is done:
as §5, §6, §7, §8

Consider `C=C1C[C@@H]2CC[C@@]34C[C@H]5OC6C(O[C@H]7CC[C@H](CC(=O)C[C@@H]8[C@@H](OC)[C@@H](C[C@H](O)CNC(=O)CNC(=O)[C@H](Cc9ccccc9)NC(=O)CNC(=O)CNC(=O)CCCCCN9C(=O)C=CC9=O)O[C@H]8C[C@H]8O[C@@H](CC[C@@H]1O2)C[C@@H](C)C8=C)O[C@@H]7[C@@H]6O3)[C@H]5O4` [Comparative Example 4, reference compound], for which the “Naked antibody content (%)” value in series [1] was determined as 8.01%. In series [2], this compound came in with a DAR of 3.01. The “in vivo anti-tumor effect on breast cancer” value in [3] is “poor anti-tumor effects”. The “in vivo anti-tumor effect on gastric cancer” value in [4] is reported as “poor anti-tumor effects”. In addition, the “Polymer content (%)” value in series [5] amounted to 10.73%.
Consider `C=C1C[C@@H]2CC[C@@]34C[C@H]5OC6C(O[C@H]7CC[C@H](CC(=O)C[C@@H]8[C@@H](OC)[C@@H](C[C@H](O)CNC(=O)CNC(=O)[C@H](Cc9ccccc9)NC(=O)CNC(=O)CNC(=O)CCOCCOCCN(CCOCCOCCC(=O)NCC(=O)NCC(=O)N[C@@H](Cc9ccccc9)C(=O)NCC(=O)NCOCC(=O)N[C@H]9CCc%10c(C)c(F)cc%11nc%12c(c9c%10%11)Cn9c-%12cc%10c(c9=O)COC(=O)[C@]%10(O)CC)C(=O)CN9CCOCCOCCOCCOCCN(C(=O)CCOCCOCCOCCOCCC%10C(=O)C=CC%10=O)CCOCCOCCOCCOCC9)O[C@H]8C[C@H]8O[C@@H](CC[C@@H]1O2)C[C@@H](C)C8=C)O[C@@H]7[C@@H]6O3)[C@H]5O4` [Example 13], for which the “Naked antibody content (%)” value in series [1] is given as 5.02%. Besides, the DAR in [2] is 4.02; in series [6] (Day 0, 40° C. in dark), 4.02; in series [6] (Day 7, 40° C. in dark) it was 4.02; in series [6] (Day 14, 40° C. in dark), 4.04. In addition, the “Polymer content (%)” value is 0.77% in [6] (Day 0, 40° C. in dark); 0.78% in series [6] (Day 7, 40° C. in dark); 0.91% in series [6] (Day 14, 40° C. in dark); 0.77% in [5]. The “stability in the plasma of monkeys” value in series [7] is given as “significantly better”. In addition, the “stability in the plasma of mice” value in [8] is “significantly better”. Further, the “stability in the plasma of humans” value in series [9] is “significantly better”.
Take `CC[C@@]1(O)C(=O)OCc2c1cc1n(c2=O)Cc2c-1nc1cc(F)c(C)c3c1c2[C@@H](NC(=O)COCNC(=O)CNC(=O)[C@H](Cc1ccccc1)NC(=O)CNC(=O)CNC(=O)CN1CCOCCN(C(=O)CCN2C(=O)C=CC2=O)CCOCC1)CC3` [Example 22] ({Propanoyl(3-maleimido)}-[X1]GGFG[NHCH2OCH2CO]-Exatecan): the “Naked antibody content (%)” value in series [1] stood at 0.00%. Also, the DAR in series [2] is listed as 4.14; in series [6] (Day 0, 40° C. in dark), 4.14; in series [6] (Day 7, 40° C. in dark), 4.12; in [6] (Day 14, 40° C. in dark), 4.15. For the same compound, the “Polymer content (%)” value in series [6] (Day 0, 40° C. in dark) was 0.76%; in [6] (Day 7, 40° C. in dark), 0.81%; in series [6] (Day 14, 40° C. in dark), 0.78%; in series [5], 0.76%. For the same compound, in series [7], the “stability in the plasma of monkeys” value is “significantly better”. For the same compound, the “stability in the plasma of mice” value in [8] is on record as “significantly better”. Also, in [9], the “stability in the plasma of humans” value is recorded as “significantly better”.
